2 molecules from publication PMC12691273 can be followed below.

The test concerns the target T1, 14-3-3 protein, Q5ZKC9.
T1 chain: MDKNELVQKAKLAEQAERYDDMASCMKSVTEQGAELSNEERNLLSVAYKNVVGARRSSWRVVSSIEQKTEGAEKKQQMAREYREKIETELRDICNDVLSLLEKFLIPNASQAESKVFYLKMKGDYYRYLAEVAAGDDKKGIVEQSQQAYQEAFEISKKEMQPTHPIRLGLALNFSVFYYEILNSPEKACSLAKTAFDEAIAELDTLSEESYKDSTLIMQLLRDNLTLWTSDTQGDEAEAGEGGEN
Nature of the test: co-immunoprecipitation (IP FOXO1, WB 14-3-3), band quantification. To be noted: chain shown with the change; chicken granulosa cells, with 740-Y-P; n = 3; parent: est. 3.7; read off a plot.

B1: chicken forkhead box O1 (FOXO1) wild-type, A0A8V0XGP1 S311A (protein)
chain: MAEAPQLVDIDPDFEPLPRPRSCTWPLPRPEFNPPSSATSSPAPSCGGQPDGAAAAGAAVAVAASGALSADFISNLCLVEESEDFALPPAAAAPPESAACRCGDFSAPEAGCRLHPPGPPPVPPVPPAVAALSPGPVAGQPRKSSSSRRNAWGNLSYADLITKAIESSPEKRLTLSQIYEWMVKSVPYFKDKGDSNSSAGWKNSIRHNLSLHSKFIRVQNEGTGKSSWWMLNPEGGKSGKSPRRRAASMDNNSKFAKSRGRAAKKKASLQSGQEGNGDSPGSQFSKWPASPSSHSNDDFDNWSTFRPRTSANASTISGRLSPILPEQDDLGDGDVHSMVYPSSATKMTSTLPSLSEMSSSENMENLLDNLNLLSPNTSMTVSTQSSSAALMQQTPGYSFASSTTSICSPNPDYRKFTYAQASMNSLPQIPMQTLQDSKSSYGSMSQFNCPAGLLKELLTSDSPPHNDILASVDTGVSQAGGRALGQGVLMVTNSVMPTYGNQPPHNKMMNPNARPHQGHNQPTPAVNGRALSHTVNPMSHTSCLNRLSTVKTSLQVPMSHQMQMNAMNPYAPVNSCNGYGRVGIVSLHQEKLPSDLDDMLIERLDCDMESIIRNDLMDGETLDFNFDSVLPNQSFQHSVKTTTHSWVSG
Turning to B1, the response stood at 3.7.

B2: chicken forkhead box O1 (FOXO1) wild-type, A0A8V0XGP1 S248A (protein)
chain: MAEAPQLVDIDPDFEPLPRPRSCTWPLPRPEFNPPSSATSSPAPSCGGQPDGAAAAGAAVAVAASGALSADFISNLCLVEESEDFALPPAAAAPPESAACRCGDFSAPEAGCRLHPPGPPPVPPVPPAVAALSPGPVAGQPRKSSSSRRNAWGNLSYADLITKAIESSPEKRLTLSQIYEWMVKSVPYFKDKGDSNSSAGWKNSIRHNLSLHSKFIRVQNEGTGKSSWWMLNPEGGKSGKSPRRRAAAMDNNSKFAKSRGRAAKKKASLQSGQEGNGDSPGSQFSKWPASPSSHSNDDFDNWSTFRPRTSSNASTISGRLSPILPEQDDLGDGDVHSMVYPSSATKMTSTLPSLSEMSSSENMENLLDNLNLLSPNTSMTVSTQSSSAALMQQTPGYSFASSTTSICSPNPDYRKFTYAQASMNSLPQIPMQTLQDSKSSYGSMSQFNCPAGLLKELLTSDSPPHNDILASVDTGVSQAGGRALGQGVLMVTNSVMPTYGNQPPHNKMMNPNARPHQGHNQPTPAVNGRALSHTVNPMSHTSCLNRLSTVKTSLQVPMSHQMQMNAMNPYAPVNSCNGYGRVGIVSLHQEKLPSDLDDMLIERLDCDMESIIRNDLMDGETLDFNFDSVLPNQSFQHSVKTTTHSWVSG
As to B2, the response came to 2.7.
